Experimental data taken from patent US20160068604A1 (University of Texas, published 2016).
Blank lines part the entries; values can stand above or below the binder they belong to.

What was measured:
[1] = target: T1, human OX40 (human, UniProt P43489 29-277); assay: cell ELISA on dried L-hOX40 versus parental L cells, anti-mouse IgG Fc HRP
T1 construct: whole, on cells; also called hOX40; OX40 receptor
T1 sequence (looked up): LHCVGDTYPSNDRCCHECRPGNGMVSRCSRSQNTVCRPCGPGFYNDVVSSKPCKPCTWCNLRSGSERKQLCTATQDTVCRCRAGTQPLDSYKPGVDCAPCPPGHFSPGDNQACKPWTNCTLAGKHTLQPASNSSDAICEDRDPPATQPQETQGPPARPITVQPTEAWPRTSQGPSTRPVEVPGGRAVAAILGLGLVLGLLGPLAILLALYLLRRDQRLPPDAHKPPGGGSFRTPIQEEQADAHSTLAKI
Procedure: In the experiment of FIG. 10, hOX40 hybridoma supernatants were screened against L-hOX40 versus L parental cells by ELISA. […] Plates were then frozen at −20° C. for at least one day before use. For antibody binding assays, frozen cells were rehydrated with PBS and washed with wash buffer containing PBS plus 0.05% Tween 20, and blocked with 2% BSA in wash buffer. Conditioned cells were then used for binding to OX40 antibody supernatants.

[2] = target: T1, human OX40; assay: FACS binding assay on L/OX40 cells, PE goat anti-human IgG
[3] = target: T1, human OX40; assay: flow cytometry on L/OX40 cells, FITC goat anti-human IgG
Procedure: In a typical experiment, various concentrations of Ch119-43-1 were incubated with 10⁵ L/OX40 cells in PBS containing 0.5% BSA and 0.05% NaN₃ (FACS Buffer) for 1 hour at 4° C. Cells were then washed with ice-cold FACS Buffer and subjected to incubation with FITC-labeled goat anti-human IgG antibody for 30 min at 4° C. After washing with FACS Buffer, stained cells were analyzed using a FACScan flow cytometer (BD Biosciences, San Jose, Calif.).

[4] = target: T1, human OX40; assay: FACS binding assay on L/hOX40 cells, PE goat anti-human IgG

B1: mouse anti-human OX40 monoclonal antibody 119-122 (antibody, V domains shown)
VH: EVQLVESGGGLVQPGESLKLSCESNEYEFPSHDMSWVRKTPEKRLELVAAINSDGGSTYYPDTMERRFIISRDNTKKTLYLQMSSLRSEDTALYYCARHYDDYYAWFAYWGQGTLVTVSA
VL: DIVLTQSPASLAVSLGQRATISCRASKSVSTSGYSYMHWYQQKPGQPPKLLIYLASNLESGVPARFSGSGSGTDFTLNIHPVEEEDAATYYCQHSRELPLTFGAGTKLELK
notes: Mouse hybridoma antibody; also called Mouse122
- binding result [1]: binds

B2: Chimeric 119-122 IgG1/kappa monoclonal antibody (antibody, V domains shown)
VH: EVQLVESGGGLVQPGESLKLSCESNEYEFPSHDMSWVRKTPEKRLELVAAINSDGGSTYYPDTMERRFIISRDNTKKTLYLQMSSLRSEDTALYYCARHYDDYYAWFAYWGQGTLVTVSA
VL: DIVLTQSPASLAVSLGQRATISCRASKSVSTSGYSYMHWYQQKPGQPPKLLIYLASNLESGVPARFSGSGSGTDFTLNIHPVEEEDAATYYCQHSRELPLTFGAGTKLELK
notes: Mouse variable regions with human gamma-1 and kappa constant regions (IgG1/kappa); also called Ch119
- binding result [2]: binds

B3: Chimeric 119-43-1 IgG1/kappa antibody (antibody, V domains shown)
VH: EVKLEESGGGLVQPGGSMKLSCAASGFTFSDAWMDWVRQSPEKGLEWVAEIRSKANNHATYYAESVNGRFTISRDDSKSSVYLQMNSLRAEDTGIYYCTWGEVFYFDYWGQGTTLTVSS
VL: DIQMTQSPSSLSASLGGKVTITCKSSQDINKYIAWYQHKPGKGPRLLIHYTSTLQPGIPSRFSGSGSGRDYSFSISNLEPEDIATYYCLQYDNLLTFGAGTKLELKR
notes: also called Ch119-43-1
- EC50 [3]: 0.96 µg/mL

B4: Humanized 119-122 IgG1/kappa monoclonal antibody (antibody, V domains shown)
VH: EVQLVESGGGLVQPGGSLRLSCAASEYEFPSHDMSWVRQAPGKGLELVAAINSDGGSTYYPDTMERRFTISRDNAKNSLYLQMNSLRAEDTAVYYCARHYDDYYAWFAYWGQGTMVTVSS
VL: EIVLTQSPATLSLSPGERATLSCRASKSVSTSGYSYMHWYQQKPGQAPRLLIYLASNLESGVPARFSGSGSGTDFTLTISSLEPEDFAVYYCQHSRELPLTFGGGTKVEIK
notes: Human IgG1/kappa; also called Hu119
- binding result [2]: binds

B5: Humanized 106-222 IgG1/kappa monoclonal antibody (antibody, V domains shown)
VH: QVQLVQSGSELKKPGASVKVSCKASGYTFTDYSMHWVRQAPGQGLKWMGWINTETGEPTYADDFKGRFVFSLDTSVSTAYLQISSLKAEDTAVYYCANPYYDYVSYYAMDYWGQGTTVTVSS
VL: DIQMTQSPSSLSASVGDRVTITCKASQDVSTAVAWYQQKPGKAPKLLIYSASYLYTGVPSRFSGSGSGTDFTFTISSLQPEDIATYYCQQHYSTPRTFGQGTKLEIK
notes: Human IgG1/kappa; also called Hu222
- binding result [4]: binds

Further lines, results first:

- binding result [1]: binds
B6: mouse anti-human OX40 monoclonal antibody 106-222 (antibody, V domains shown)
VH: QIQLVQSGPELKKPGETVKISCKASGYTFTDYSMHWVKQAPGKGLKWMGWINTETGEPTYADDFKGRFAFSLETSASTAYLQINNLKNEDTATYFCANPYYDYVSYYAMDYWGHGTSVTVSS
VL: DIVMTQSHKFMSTSVRDRVSITCKASQDVSTAVAWYQQKPGQSPKLLIYSASYLYTGVPDRFTGSGSGTDFTFTISSVQAEDLAVYYCQQHYSTPRTFGGGTKLEIK
notes: Mouse hybridoma antibody; also called Mouse222

- binding result [4]: binds
B7: Chimeric 106-222 IgG1/kappa monoclonal antibody (antibody, V domains shown)
VH: QIQLVQSGPELKKPGETVKISCKASGYTFTDYSMHWVKQAPGKGLKWMGWINTETGEPTYADDFKGRFAFSLETSASTAYLQINNLKNEDTATYFCANPYYDYVSYYAMDYWGHGTSVTVSS
VL: DIVMTQSHKFMSTSVRDRVSITCKASQDVSTAVAWYQQKPGQSPKLLIYSASYLYTGVPDRFTGSGSGTDFTFTISSVQAEDLAVYYCQQHYSTPRTFGGGTKLEIK
notes: Mouse variable regions with human gamma-1 and kappa constant regions (IgG1/kappa); also called Ch222
